Test results reported in publication PMC11879689, “Integrative in silico and biochemical analyses demonstrate direct Arl3-mediated ODA16 release from the intraflagellar transport machinery” (The Journal of Biological Chemistry, 2025).
Where two headings read alike, the source gives them in different places. Blank lines part the entries; values can stand above or below the molecule they belong to.

Experiments:
[1] = target: CrODA16 C-terminal β-propeller, CrODA16C(80-423) (Chlamydomonas reinhardtii) (UniProt Q3Y8L7); test: ITC; 25 °C, MicroCal iTC200; 10 mM HEPES pH 7.5, 200 mM NaCl, 0.5 mM TCEP; 20 μM CrODA16 in the cell, 200 μM IFT46 peptide or CrIDA3 in the syringe
[2] = target: T1, full-length CrODA16 (CrODA16fl) (Chlamydomonas reinhardtii, UniProt Q3Y8L7 1-446); test: as above
T1 construct: ODA16, Chlamydomonas reinhardtii, full length (N-terminal domain residues 1-80, C-terminal beta-propeller residues 80-445); it may be the same protein as CrODA16-HT
T1 sequence (looked up): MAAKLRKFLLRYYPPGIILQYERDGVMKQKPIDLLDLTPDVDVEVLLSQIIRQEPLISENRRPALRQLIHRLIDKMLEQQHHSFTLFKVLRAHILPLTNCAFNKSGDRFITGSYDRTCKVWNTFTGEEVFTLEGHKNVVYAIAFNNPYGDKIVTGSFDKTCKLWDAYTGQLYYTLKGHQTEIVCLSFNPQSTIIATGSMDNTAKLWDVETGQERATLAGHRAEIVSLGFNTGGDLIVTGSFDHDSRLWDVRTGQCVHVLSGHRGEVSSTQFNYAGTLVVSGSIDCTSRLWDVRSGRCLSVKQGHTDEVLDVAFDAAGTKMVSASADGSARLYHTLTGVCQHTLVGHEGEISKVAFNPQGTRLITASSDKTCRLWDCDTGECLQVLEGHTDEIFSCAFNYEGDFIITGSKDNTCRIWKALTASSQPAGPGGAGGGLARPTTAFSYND

[3] = target: ODA16 (Chlamydomonas reinhardtii) (UniProt Q3Y8L7); test: ITC; details: cited from earlier work
[4] = target: T2, hexa-His-tagged CrODA16 (CrODA16-HT) (Chlamydomonas reinhardtii, UniProt Q3Y8L7 1-446); test: pull-down; CrODA16-HT (10 μM) immobilised on nickel resin, one prey (20–30 μM), 1 h 4 °C; 10 mM HEPES pH 7.5, 200 mM NaCl, 2 mM MgCl2, 1 mM DTT; eluted with 500 mM imidazole, SDS-PAGE; CrArl3 nucleotide-free; details: both partners purified
T2 construct: ODA16, Chlamydomonas reinhardtii; Bait on nickel resin
T2 sequence (looked up): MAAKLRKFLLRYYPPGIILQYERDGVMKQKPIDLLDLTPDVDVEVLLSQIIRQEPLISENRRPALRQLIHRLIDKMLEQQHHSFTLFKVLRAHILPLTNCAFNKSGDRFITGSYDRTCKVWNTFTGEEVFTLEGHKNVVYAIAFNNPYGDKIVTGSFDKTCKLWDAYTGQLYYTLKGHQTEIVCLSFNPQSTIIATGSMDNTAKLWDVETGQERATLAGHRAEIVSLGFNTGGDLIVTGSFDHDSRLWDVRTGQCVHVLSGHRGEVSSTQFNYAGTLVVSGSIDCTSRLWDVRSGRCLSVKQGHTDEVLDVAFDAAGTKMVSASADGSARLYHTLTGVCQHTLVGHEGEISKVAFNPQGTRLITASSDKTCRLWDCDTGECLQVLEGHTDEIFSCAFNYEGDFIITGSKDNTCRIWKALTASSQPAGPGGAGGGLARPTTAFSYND

[5] = target: T2, hexa-His-tagged CrODA16 (CrODA16-HT); test: pull-down; CrODA16-HT immobilised on nickel resin; two preys added together (CrIFT46 with CrIDA3, also at 3:1 excess of CrIFT46; CrIFT46 with CrArl3), beside each prey alone; details: both partners purified
[6] = target: T1, full-length CrODA16 (CrODA16fl); test: pull-down; competitive binding (titration) assay: GST-tagged bait (10 μM) pre-complexed with CrODA16 (20 μM) on GSH resin, washed, then untagged competitor at rising concentrations, 1 h 4 °C; eluted with 33 mM glutathione, SDS-PAGE; details: both partners purified

Kd [1]: 288 nM
Kd [2]: 1770 nM
stoichiometry N [2]: 0.996
Molecule: CrIDA3 (residues 1-166 and 241-366), untagged (domain or fragment)

Molecule: IFT46 (from UniProt A2T2X4)
Kd [3]: 200 nM

Kd ([2]; both partners purified): 1000 ± 380 nM
B1: CrIFT46(23-44) peptide (peptide, UniProt A2T2X4 23-44, looked up)
peptide: RSQVVQNQPHDEEVNLSESESF
notes: IFT46, Chlamydomonas reinhardtii, residues 23-44; R23 and F44 mark the ends of the peptide; also called IFT46 peptide; source: synthetic peptide

binding result [4]: binds
B2: CrArl3_Q70L (GTP-locked, full length) (enzyme, Chlamydomonas reinhardtii, UniProt A8ISN6 1-177, looked up)
chain: MGLLSLIRGLKKKEGEARILVLGLDNAGKTTILKALSEEDITTITPTQGFNIKSLSRDGFNLKIWDIGGLKSIRPYWRNYFDQTDALIYVIDSADSKRLSESEFELTELLQEEKMTGVPLLVFANKQDLVGALAADEIASTLDLTSIRDRPWQIQACSAKQGTGLKEGMEWMMKQVK
notes: Arl3, Chlamydomonas reinhardtii, with Q70L; codon-optimised synthetic gene; Cloned with C-terminal TEV-His8; Used nucleotide-free or loaded with GTP; also called CrArl3_Q70L-FL

binding result [5]: binds
binding result [6]: binds
B3: CrIFT46 (wild type, untagged) (natural protein, Chlamydomonas reinhardtii, UniProt A2T2X4 1-344, looked up)
chain: MDDSMDYPDRDGDDLDQFQGTARSQVVQNQPHDEEVNLSESESFAGADEPPAAPRDASLIESHDMDEGPAAPARTLSPTGYEAGKHAPGGIANSDEAPPGAYNAQEYKHLNVGEDVRELFSYIGRYKPQTVELDTRIKPFIPDYIPAVGGIDEFIKVPRPDTKPDYLGLKVLDEPAAKQSDPTVLTLQLRQLSKEAPGAKADMVGRLEHTDENKAKKIQQWIASINDIHKAKPAATVNYSKRMPEIEALMQEWPPEVETFLKTMHMPSGDVELDIKTYARLVCTLLDIPVYDDPVESLHVLFTLYLEFKNNPIFRQHMEMENKLDGMSGGGGGMMGGGADVLGL
notes: IFT46, Chlamydomonas reinhardtii; also called WT CrIFT46

binding result [6]: binds
B4: GST-CrIFT46 (natural protein, Chlamydomonas reinhardtii, UniProt A2T2X4 1-344, looked up)
chain: MDDSMDYPDRDGDDLDQFQGTARSQVVQNQPHDEEVNLSESESFAGADEPPAAPRDASLIESHDMDEGPAAPARTLSPTGYEAGKHAPGGIANSDEAPPGAYNAQEYKHLNVGEDVRELFSYIGRYKPQTVELDTRIKPFIPDYIPAVGGIDEFIKVPRPDTKPDYLGLKVLDEPAAKQSDPTVLTLQLRQLSKEAPGAKADMVGRLEHTDENKAKKIQQWIASINDIHKAKPAATVNYSKRMPEIEALMQEWPPEVETFLKTMHMPSGDVELDIKTYARLVCTLLDIPVYDDPVESLHVLFTLYLEFKNNPIFRQHMEMENKLDGMSGGGGGMMGGGADVLGL
notes: IFT46, Chlamydomonas reinhardtii; also called GST-tagged CrIFT46
